The values below come from paper PMC9519457 (Nature Microbiology, 2022).

Common to all, as to test: BLI
What all share (conditions): both partners purified

In test [1] the target is T1, SARS-CoV-2 Alpha RBD (SARS-CoV-2 Alpha (B.1.1.7), N501Y (stands in the printed letters)).
For test [2], the target named is T1, SARS-CoV-2 Alpha RBD. The source holds these as a separate data set.
Test [3] has as its target SARS-CoV-2 RBD (residues 319-541), wild type (SARS-CoV-2, wild type, UniProt P0DTC2).
Test [4] concerns the target recombinant SARS-CoV-2 RBD-His protein (Sino Biological, 40592-V08B) (SARS-CoV-2, UniProt P0DTC2).
For test [5], the target named is SARS-CoV-2 Alpha (B.1.1.7) variant RBD (SARS-CoV-2 Alpha (B.1.1.7), N501Y).
The target in test [6] is S-R SARS-CoV-2 spike (unstabilized native spike with furin site changed to a single R) (SARS-CoV-2, wild type (Wuhan-Hu-1 spike), UniProt P0DTC2, stabilised).
For test [7], the target named is S-R/x2 SARS-CoV-2 spike (x2 disulfide-stabilized RBD 'down' spike) (SARS-CoV-2, wild type (Wuhan-Hu-1 spike), UniProt P0DTC2, stabilised).
For test [8], the target named is S-R/PP SARS-CoV-2 spike (2P-stabilized spike with furin site changed to a single R) (SARS-CoV-2, wild type (Wuhan-Hu-1 spike), UniProt P0DTC2, stabilised).
The target of test [9] is S-R/x3 SARS-CoV-2 spike (x3 disulfide-stabilized RBD 'down' spike) (SARS-CoV-2, wild type (Wuhan-Hu-1 spike), UniProt P0DTC2, stabilised).
Test [10] has as its target T1, SARS-CoV-2 Alpha RBD. The source holds these as a separate data set.

B1: R1-32 (antibody, V domains shown)
VH: EVQLVESGAEVKKPGSSVKVSCKASGGTFSSYAISWVRQAPGQGLEWMGGIIPILGIANYAQKFQGRVTITADKSTSTAYMELSSLRSEDTAVYYCARENGYSGYGAAANFDLWGRGTLVTVSS
VL: QSVLTQPPSVSGAPGQRVTISCTGSSSNIGAGYDVHWYQQLPGTAPKLLIYGNSNRPSGVPDRFSGSKSGTSASLAITGLQAEDEADYYCQSYDSSLSGSVFGGGTKLTVL
notes: human IgG1
For orientation: koff means a measure of how fast the partners let go of each other. As usually defined, the kon is the rate constant with which the complex forms. A high value points to faster complex formation. One may read the Kd as a measure of binding affinity in units of concentration. High values mean a looser complex, low ones a tighter complex. As to B1, in the test with SARS-CoV-2 Alpha RBD [1], the koff came out at 0.000354 s⁻¹ and the on-rate (kon) was found to be 499000 M⁻¹ s⁻¹. In the test with SARS-CoV-2 Alpha RBD [2], binding was characterised by a dissociation constant (Kd) of 4740 pM, the off-rate (koff) was found to be 0.00195 s⁻¹ and the on-rate constant (kon) amounted to 411000 M⁻¹ s⁻¹.

B2: C832 (R1-32-like mAb, ref. 29) (antibody, V domains shown)
VH: QVQLVQSGAEVKKPGSSVKVSCKASGGTFSSYSISWVRQAPGQGLEWMGRIIPILGIASYAQKFQGRVTITADKSTSTVYMELTGLRSDDTAVYYCARDRGYSDYGSHYYMDVWGKGTTVTVSS
VL: QSVLTQPPSVSGAPGQRVTISCTGSSSNIGAGYDVHWYQQLPGTAPKLLIYINSNRPSGVPDRFSGSKSGTSASLAITGLQAEDEADYYCQSYDSSLSDSVFGGGTKLTVL
Take B2: the binding result in test [3] and in test [4] was “binds” throughout.

B3: C091 (R1-32-like mAb, ref. 28) (antibody, V domains shown)
VH: QVQLVQSGAEVKKPGSSVKVSCKASGGTFSSYTISWVRQAPGQGLEWMGRIIPILGIANYAQKFQGRVTITADKSTSTAYMELSSLRSEDTAVYYCARDSGYSGYGSTYYMDVWGKGTTVTVSS
VL: QSVLTQPPSVSGAPGQRVTISCTGSSSNIGAGYDVHWYQQLPGTAPKLLIYGNSNRPSGVPDRFSGSKSGTSASLAITGLQAEDEADYYCQSYDSSLSGSVFGTVTKVTVL
B3: the binding result in test [3] and in test [4] was “binds” throughout.

B4: C807 (R1-32-like mAb, ref. 29) (antibody, V domains shown)
VH: QVQLVQSGAEAKKPGSSVKVSCKASGGTFKSYIINWVRQAPGQGLEWMGEIIPIFGTANYAQKFQGRVTSTADESTSTAYMELSSLKSEDTAVYYCARGRGYSGYGASYYFDYWGQGTLVTVSS
VL: QSVLTQPPSVSGAPGQRVTISCTGSNSNIGAGYDVHWYQQLPGTAPKLLIYANSNRPSGVPDRFSGSKSGTSASLAITGLQAEDEADYYCQSYDSGLSGSVFGGGTKLTVL
For the molecule B4, the binding result in test [3] and in test [4] was “binds” throughout.

B5: R1-32 (human IgG1 monoclonal antibody) (antibody, V domains shown)
VH: EVQLVESGAEVKKPGSSVKVSCKASGGTFSSYAISWVRQAPGQGLEWMGGIIPILGIANYAQKFQGRVTITADKSTSTAYMELSSLRSEDTAVYYCARENGYSGYGAAANFDLWGRGTLVTVSS
VL: QSVLTQPPSVSGAPGQRVTISCTGSSSNIGAGYDVHWYQQLPGTAPKLLIYGNSNRPSGVPDRFSGSKSGTSASLAITGLQAEDEADYYCQSYDSSLSGSVFGGGTKLTVL
The molecule B5 registered an equilibrium dissociation constant (Kd) in test [5] of 710 pM. In addition, the binding result in test [6], in test [7], in [8] and in [9] was “binds” throughout.

B6: C092 (R1-32-like mAb, ref. 28) (antibody, V domains shown)
VH: QVQLVQSGAEVKKPGSSVKVSCKASGGSFTNHFISWVRQAPGQGLEWMGRIIPILGTANYAQNFQGRVMMTADKSTSTAYMELSSLRSEDTAVYYCARDSGYSGYGSTYYMDVWGKGTTVTVSS
VL: QSVLTQPPSVSGAPGQRVTISCTGSNSNIGAGYDVHWYQQLPGAAPKLLIYGNNNRPSGVPDRFSGSKSDTSASLAITGLQVEDEADYYCQSYDSSLSDSVFGSGTKVTVL
As for B6, the binding result in test [3] and in test [4] was “binds” throughout.

B7: FC08 (antibody, V domains shown)
VH: QLLQQSGAEVKKPGSSVKVSCKASGGTFSSYAISWVRQAPGQGLEWMGGIIPIIGIANYAQKFQGRVTITADKSTSTAYMELSSLRSEDTAVYYCARERGYSGYGAAYYFDYWGQGTLVTVSS
VL: SVLTQPPSVSGAPGQRVTISCTGSSSNIGAGYDVHWYQQLPGTAPKLLIYGNSNRPSGVPDRFSGSKSGTSASLAITGLQAEDEADYYCQSYDSSLSGSVFGGGTKLTVL
Turning to B7, in the test with SARS-CoV-2 Alpha RBD [10], the dissociation constant (Kd) amounted to 150 pM, the koff stood at 0.00025 s⁻¹ and the on-rate constant (kon) was 1.69e+06 M⁻¹ s⁻¹.

B8: FC08 (R1-32 related VH1-69 antibody, ref. 10) (antibody, V domains shown)
VH: QLLQQSGAEVKKPGSSVKVSCKASGGTFSSYAISWVRQAPGQGLEWMGGIIPIIGIANYAQKFQGRVTITADKSTSTAYMELSSLRSEDTAVYYCARERGYSGYGAAYYFDYWGQGTLVTVSS
VL: SVLTQPPSVSGAPGQRVTISCTGSSSNIGAGYDVHWYQQLPGTAPKLLIYGNSNRPSGVPDRFSGSKSGTSASLAITGLQAEDEADYYCQSYDSSLSGSVFGGGTKLTVL
Regarding B8, the binding result in test [6], in test [3] and in [9] was “binds” in each case.

B9: C978 (R1-32-like mAb, ref. 27) (antibody, V domains shown)
VH: QVQLVQSGAEVKKPGSSVKVSCKASGATFSNYIISWVRQAPGQGLEWMGRTIPLLDIANYAQKFQGRVTITADKSTRIVYMHLGSLTSEDTAVYYCATGKGYSSSSAAYYFDHWGQGTLVTVSS
VL: QSVLTQPPSVSGAPGQRVTISCTGTNSNIGAGYDIHWYQQLPGTAPKLLIYGSNNRPSGVPDRFSGSKSGTSASLAITGLQAEDEADYYCQSYDSSLSGSEVFGGGTKLTVL
Consider B9, for which the binding result in [3] and in [4] was “binds” in each case.

B10: C963 (R1-32-like mAb, ref. 27) (antibody, V domains shown)
VH: QVQLVQSGAEVKKPGSSVRVSCKASGGTFSSFTITWVRQAPGQGLEWMGRIIPNLNIPNYAQRFQGRITITAEKSTSTAYLELSSLRSEDTAVYYCARGVGYSGSGSNWYFDLWGRGTLVTVSS
VL: QSVLTQPPSVSGAPGQRVTISCTGSSSNIGAGYDVHWYQQLPGTAPKLLISGHINRPSGVPDRFSGSTSGTSASLAITGLQAEDEADYYCQSYDSSLSDSVFGGGTKLTV
Consider B10, for which the binding result in test [3] and in test [4] was “binds” throughout.

B11: C941 (R1-32-like mAb, ref. 27) (antibody, V domains shown)
VH: QVQLVQSGAEVKKPGSSVKVSCKASGGTSRSYPISWVRQAPGQGLEWMGRIIPIVGTANYAQRFQGRVTITADESTGTAYMELSSLRSEDTAVYYCARNRGYSDYGSVYYFDYWGQGTLVTVSS
VL: QSVLTQPPSVSGAPGQRVTISCTGSSSNIGAGYDVHWYQQLPGAAPKLLIYRNINRPSGVPDRFSGSKSGTSASLAITGLQADDEADYYCQSYDSSLSGSVFGGGTKLTV
Take B11: the binding result in test [3] and in test [4] was “binds” throughout.
